Measured values reported in patent US20030077318A1.

Biological target: soluble H-2K^b (K^bsol), heterodimer of truncated K^b heavy chain and murine β-2 microglobulin, purified empty from Drosophila cells (murine) (UniProt P01901)
Assay: competitive RIA against [^125I]VSV-8 on K^bsol, P30 gel filtration, 23° C.

Substance	Kd [nM]
OVA-8 (peptide)	4.1
OVA-9C (peptide)	11
OVA-10C (peptide)	14
OVA-10N (peptide)	280
